Test results published in patent US20110053865A1 (Ablynx, published 2011).
Values joined by “and” are separate entries in the source; they are usually repeats but may differ in a detail not shown here. Identical values can stand only once. Like-named read-outs stand apart in the source and are kept apart here.

T1: native human IL-23 (supernatant of SAC-stimulated THP-1 cells) (human, UniProt Q9NPF7 20-189; P29460 23-328)
T1 sequence (looked up) 1: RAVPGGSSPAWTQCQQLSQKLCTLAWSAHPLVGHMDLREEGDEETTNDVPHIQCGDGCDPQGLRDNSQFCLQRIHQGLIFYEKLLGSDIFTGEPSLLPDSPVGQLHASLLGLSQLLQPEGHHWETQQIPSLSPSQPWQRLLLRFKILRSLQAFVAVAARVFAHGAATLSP
T1 sequence (looked up) 2: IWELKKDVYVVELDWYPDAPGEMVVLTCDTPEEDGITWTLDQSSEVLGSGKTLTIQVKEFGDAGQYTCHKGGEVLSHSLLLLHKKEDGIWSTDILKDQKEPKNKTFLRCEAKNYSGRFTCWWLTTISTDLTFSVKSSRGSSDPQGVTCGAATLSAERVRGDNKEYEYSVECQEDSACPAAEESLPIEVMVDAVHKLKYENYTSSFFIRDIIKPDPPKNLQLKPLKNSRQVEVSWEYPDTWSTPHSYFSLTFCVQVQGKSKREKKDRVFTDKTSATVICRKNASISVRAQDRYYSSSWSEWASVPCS

T2: recombinant human IL-23 (p19/p40) (human, UniProt Q9NPF7 20-189; P29460 23-328)
T2 sequence (looked up) 1: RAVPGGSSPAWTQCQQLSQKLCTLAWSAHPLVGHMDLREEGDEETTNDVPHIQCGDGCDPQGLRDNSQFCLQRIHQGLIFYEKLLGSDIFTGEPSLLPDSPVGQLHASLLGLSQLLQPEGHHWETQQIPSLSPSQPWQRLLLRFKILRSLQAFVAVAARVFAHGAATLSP
T2 sequence (looked up) 2: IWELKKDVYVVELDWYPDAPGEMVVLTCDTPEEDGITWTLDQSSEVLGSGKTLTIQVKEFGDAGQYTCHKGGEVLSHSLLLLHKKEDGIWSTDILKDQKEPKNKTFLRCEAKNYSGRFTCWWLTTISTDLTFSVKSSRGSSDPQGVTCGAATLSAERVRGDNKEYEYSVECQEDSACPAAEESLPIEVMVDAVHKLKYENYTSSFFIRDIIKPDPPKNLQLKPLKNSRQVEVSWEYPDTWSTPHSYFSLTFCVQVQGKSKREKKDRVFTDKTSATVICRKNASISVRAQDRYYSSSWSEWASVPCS


What was measured:
[1] = target: T1, native human IL-23 (supernatant of …); assay: cell-based or functional assay
[2] = target: T2, recombinant human IL-23 (p19/p40); assay: cell-based or functional assay
cynomolgus IL-23 [3] = target: cynomolgus IL-23 (cynomolgus); assay: cell-based or functional assay
[4] = target: T2, recombinant human IL-23 (p19/p40); assay: cell-based or functional assay; remark: listed apart in the source
[5] = target: T2, recombinant human IL-23 (p19/p40); assay: cell-based or functional assay; remark: listed apart in the source
cynomolgus IL-23 [6] = target: cynomolgus IL-23 (cynomolgus); assay: cell-based or functional assay; remark: listed apart in the source
cynomolgus IL-23 [7] = target: T3, cynomolgus IL-23 (cynomolgus); assay: alpha-screen, cIL-23/IL-23R
T3 construct: also called cyno IL-23; cIL-23

[8] = target: T2, recombinant human IL-23 (p19/p40); assay: alpha-screen, hIL-23/IL-23R
[9] = target: T2, recombinant human IL-23 (p19/p40); assay: SPR Biacore 3000, hIL-23 on chip, 100 nM only (indicative)
Description: (§1) Binding kinetics of the second round variants are in depth analysed by Surface Plasmon Resonance (Biacore 3000). […] Nanobody binding was assessed at one concentration (100 nM). Each Nanobody was injected for 4 minutes at a flow rate of 45 μl/min to allow binding to chip-bound antigen. Next, binding buffer without Nanobody was sent over the chip at the same flow rate to allow spontaneous dissociation of bound Nanobody.

[10] = target: T2, recombinant human IL-23 (p19/p40); assay: cell-based or functional assay; remark: listed apart in the source
cynomolgus IL-23 [11] = target: T3, cynomolgus IL-23; assay: cell-based or functional assay; remark: listed apart in the source
[12] = target: T2, recombinant human IL-23 (p19/p40); assay: SPR Biacore 3000, hIL-23 on chip
Description: as §1

[13] = target: T2, recombinant human IL-23 (p19/p40); assay: SPR Biacore, hIL-23; kd2 200-1000 s
[14] = target: T2, recombinant human IL-23 (p19/p40); assay: alpha-screen, hIL-23/hIL-23R
[15] = target: T2, recombinant human IL-23 (p19/p40); assay: inhibition ELISA, hIL-23/hIL-23R-Fc
Description: Visualisation was performed with enhanced soluble 3,3′,5,5′-tetramethylbenzidine (esTMB) colouring reagent, after which the coloring reaction was stopped with 1N HCl. The absorbance was measured at 450 nm.

[16] = target: T2, recombinant human IL-23 (p19/p40); assay: SPR Biacore, hIL-23; kd1 125-155 s
cynomolgus IL-23 [17] = target: T3, cynomolgus IL-23; assay: alpha-screen, cIL-23/hIL-23R
[18] = target: T2, recombinant human IL-23 (p19/p40); assay: cell-based or functional assay; remark: listed apart in the source
cynomolgus IL-23 [19] = target: T3, cynomolgus IL-23; assay: cell-based or functional assay; remark: listed apart in the source

Binder | IC50, splenocyte assay, 19 pM native hIL-23 (Expt 1) [1] | IC50, splenocyte assay, 19 pM hIL-23 [2] | IC50, splenocyte assay, 3.8 pM cIL-23 (cynomolgus IL-23 [3]) | IC50, splenocyte assay, 19 pM hIL-23 [4] | IC50, mouse splenocyte assay (mIL-22) [5] | IC50, mouse splenocyte assay (mIL-22) (cynomolgus IL-23 [6]) | IC50 (cynomolgus IL-23 [7]) | IC50 [8] | Kd [9] | kon [9] | IC50, splenocyte assay hIL-23 [10] | IC50, splenocyte assay cIL-23 (cynomolgus IL-23 [11]) | koff [12] | koff [13] | IC50 [14] | IC50 [15] | koff [16] | IC50 (cynomolgus IL-23 [17]) | IC50, splenocyte assay hIL-23 [18] | IC50, splenocyte assay cIL-23 (cynomolgus IL-23 [19])
P23IL119A3-35GS-81G2 (bispecific antibody) EVQLVESGGGLVQAGGSLRLSCAASGRIFSLPASGNIFNLLTIAWHRQAPGMQRELVATINSGSRTNYADSVKGRFTISRDNAQKTVYLQMNNLKPEDTAVYYCQTSGSGSPNFWGQGTQVTVSSGGGGSGGGGSGGGGSGGGGSGGGGSGGGGSGGGGSEVQLVESGGGLVQPGGSLRLSCIASGLPFSTKSMGWFRQAPGKEREFVARISPGGTSRYYGDFVKGRFAISRDNAKNTTWLQMNSLKAEDTAVYYCASGERSTYIGSNYYRTNEYDYWGTGTQVTVSS | 76 pM and 153 pM | 12 pM | 13 pM | 14 pM |  |  |  |  |  |  |  |  |  |  |  |  |  |  |  | 
P23IL119A3 (VHH, p19+ Nanobody) VHH: EVQLVESGGGLVQAGGSLRLSCAASGRIFSLPASGNIFNLLTIAWHRQAPGMQRELVATINSGSRTNYADSVKGRFTISRDNAQKTVYLQMNNLKPEDTAVYYCQTSGSGSPNFWGQGTQVTVSS |  |  |  |  | 25.5 nM | 37.4 nM | 0.42 nM | 0.76 nM | 1.4 nM | 3.7e+06 M⁻¹ s⁻¹ | 16.8 nM | 60.5 nM | 0.0048 s⁻¹ | 0.0014 s⁻¹ | 1.21 nM | 1.76 nM | 0.0041 s⁻¹ | 0.5 nM | 16.8 nM | 60.5 nM
P23IL119A3-BASIC (VHH) VHH: EVQLVESGGGLVQPGGSLRLSCAASGRIFSLPASGNIFNLLTIAWYRQAPGMQRELVATINSGSRTNYADSVKGRFTISRDNAQKTLYLQMNNLRPEDTAVYYCQTSGSGSPNFWGQGTLVTVSS |  |  |  |  |  |  |  |  |  |  | 37.3 nM | 66.6 nM |  | 0.002 s⁻¹ | 1.47 nM |  | 0.0052 s⁻¹ | 0.73 nM |  | 
